# Test results reported in the nanobody polyreactivity screen of Harvey et al. (2022).
# Assay: yeast display, Sf9 membrane polyspecificity reagent, FACS + sequencing; frameworks hold sequencing errors
# Procedure, shortened: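 Galactose-induced (36–48 hours) yeast carrying a synthetic nanobody display library were exposed to 10% biotinylated, detergent-solubilized Sf9 membrane reagent at 4 °C for 1 hour. FACS followed streptavidin microbead enrichment, using low and high (top ~1%) gates for expression (anti-HA) and reagent binding (streptavidin). Colony PCR, MiSeq 2 × 250 sequencing and CDR-length filtering followed. Labels for polyreactivity reflect the gate of origin.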
row,Sequence,polyreactivity (PSR sort gate)
1,QVQLVESWGGLVQAGGSLRLSCAASGSTLYQYDMGWYRHAPGKEREYLAAITTYGDSTYYADSVKGRFTISRDNAKNTVYLQMNSLKPEDTAVYYCNADVFKTVFYIDRYYYWGQGTQVTVSS,low polyreactivity
2,QVQLVESGGGLVQAVGSLRLSCAASGRIFPYYAMGWYSQAPGKERELVAVFTIGGNSYYADSVKGRFTMSRDNAKNTVYLQMNSLKPEDTAVYYCAASAYSYYRFDYWGQGTQVTVSS,low polyreactivity
3,QVQVVESGGGLVQAGGSLRLSCAASGGTDYYYAMGWYRQAPGKERELFAAITESGGSTYYADSVKARYTISRDNAKTTVYVQMNSLKPEDTAVYYCNADWRRWYIFSYDYWGQGTQVTVSS,low polyreactivity
4,QVQLVESGGGLVQAGGSLRLSCAASGRTFYYYAMGWYRQAPGKERELVASITSGDGTYYADSVKGRFTISRDNAKNTVYLQMNSLKPEDTAVYYCAADIFYKFSYYPWYPYRDYYYSGQGTQVTVSS,low polyreactivity
5,QVQLVESGGGLVQAGGSLRLSCAASGSTFGYYAMGWYRQAPGKERELVAAISVRGGRTYYADSVKGRFTISRDNAKNTVYLQMNSLKPEDTAVYYCATLLPGLGRYGYDYWGHGTQVTVSS,high polyreactivity
6,QVQLVESGGGLVQAGGSLRLSCAASGRTFYTYTMGWYRQAPRKEREFVAAISSSGSSTYYADSVKGRFTISRDNAKNTVYLQMNSLKPEDTAVYYCAATSYSYPGYFRYDYWGQGTQVTVSS,high polyreactivity
7,QVQLVESGGGLVQAGGRLRLSCAASGRTFYSNAMGWYSQAPGKERELVAAITFGGGSTYYADSVKGRFTISRDNAKNTVYLQMNSLKPEDTAVYYCAAEGYKYRFYYWGQGTQVTVSS,low polyreactivity
8,QVQLVESGGGLVQAGGSLRLSCAASGFIFIYNAMGWYRQAPGKERELVAAITGSDGGTFYADSVKGRFTISRDNAKNTVYLQMNSLKPEDTAVYYCNADIVGFQWGYDYWGQGTQVTVSS,low polyreactivity
9,QVQLVESGGGLVQAGGSLRLSCAASGSIFPYYAMGWYIQAPGKERELVAVITTSGGRTYYADSVKGRFTISRDNAKNTVYLQMNSLKPEDTAVYYCATDVRQGSGWRYYYWGQGTQVTVSS,high polyreactivity
10,QVQLVESGGGLVQAGGSLPLSCAASGRTFRRYGMGWYSNAHGKERELVAGISGYGTTNYADSVKGRFTISRDNAKNTVYLQMNSLKPEDSAVYYCAAGRPYYYTYSGLYYWGQGTQVTVSS,high polyreactivity
11,QVQLVESGGGLVQAGGSLRLSCAASGITFTFNAMGWYRQAPGKERELVAAISSTTSTKYADSVKGRFTISRDNAKTTVYLQMNSLKPEDTAVYYCARTYWLRYYGYRDDEYDYWGQGTQVTVSS,low polyreactivity
12,QVHLVESGGGLVQAGGSLRLSCAASGSTFGRNAMGWYRQAPGKERELVAAISRGGGITYYADSVKGRFTISRDNAKNTVYLQMTSLKPEDTAVYYCNAYLSKYFRYDYWGQGTQVTVSS,high polyreactivity
13,QVQLVESGGGLVQAGGSLRLSCAASGRIFWNYAMGWYRQAPGKERELVAAITWSGGSTYADSVNGRFTISRDNAKYTVYLQMNSLKPEDTAEYYCAAAYASYKFDYWGQGTQVTVSS,low polyreactivity
14,QVQLVESGGGLVQAGGSLRLRCAASGFIYIRNAMGWYRQAPGKERELVAAITRSGGRTYYADSVKGRFTISRDNAKNTVYLQMNSLIPEDTAVYYCASDAEAAWGQGTQVTVSS,high polyreactivity
15,QVQLVESGGGLVQAGGSLRLSCAASGFIFVYNAMGWYRQAPGKEREFVASITWSGGRTYYADSVKGRFTISRDNAKNTVYLQMNSLKPEDTAVYYCATKYPNSQGRRYDYWGQGTQVTVSS,low polyreactivity
16,QVPLVESGGGLVQAGGSLRLSCAASGRTFGIYAMGWYRQEPGKERELVATISWRGGSTNYADSVKGRFTISRDNAKNTVYLQMNSLKPEDTAVYYCAADPCGFGYPYLTRGTDGYDYWGQGTQVTVSS,low polyreactivity
17,QVQLVESGGGLVQAGGSLRLSCAASGSTFYQYAMGWYRQAPGKERELVARITYNGGRTYYADSVKGRFTISRDNAKNTVYLQMNSLKPEDTAVYYCAARRWSTGGYGQFDYWGQGTQVTVSS,low polyreactivity
18,QVQLVESGGGLVQAGGSLRLSCAASGSIFAYYAMGWYRQAPGKERELVAAIDSGGGTSYADSVKGRFTISRDNAKNTVYLQMNSLNPEDTAVYYCNAAGYVVYYRIIAFGYWGQGTLVTVSS,low polyreactivity
19,QVQLVESGGGLVQAGGSLRLSCAASGFIFGDYAMGWYRQAPGTERELVAAIFSGGSTYYADSVKGRFTISRDNAKNTVYLQMNSLKPEDTAVYYCAARFARYDWSMYYWGQGTQVTVSS,low polyreactivity
20,QVQLVESGGGLVQAGGSLRLSCAASGRTFPGYAMGWYRQAPGKERELVAAISSSGGSTYYADSVKGRFTISRDNAKNTVYLQMNSLKPEDTAVYYCNAAYRGRLYSWRYGYDYWGQGTQVTVSS,high polyreactivity
21,QVQLVESGGGLVQAGGSLRLSCAASGLTFKFNAMGWYRQAPGKERELVAAITYSGGSTYYADSVKGRFTISRDNAKNTVYLQMNSLKPDDTAVYYCAAEGWWGYYRYNYWGQGTQVTVSS,high polyreactivity
22,QVQLEESGGGLVQAGGRLRLSCAASGSIFYVYAMGWYRQAPGKERELVASINKSGGSTYFADSVKGRFTISRDNAKNTVYLQMNSLKPEDTAVYYCAARTGWPRVGFQYPAHVGFDYWGQGTQVTVSS,low polyreactivity

row,Sequence,polyreactivity (PSR sort gate)
1,QLQLVESGGRLVQAGGSLRLSCAASGRTFGRYAMGWYIQAPGKEREFVSSISRSTGRTSYADSVKGRFTISRANAKNTVYLQMNSLKPEDTAVYYCAVRWYYYRDDTIYVLGRYDYWGQGTQVTVSS,high polyreactivity
2,QVQLVESGGGLVQAGGSLRLSCAASGRTFYLNAMGWYRPAPGKERELVAAITRTGGRTYYADSVKGRFTISRDNAKNTVYLQMNSLKPEDTAVYYCAADYVNYSYEYWGQGTQVTVSS,high polyreactivity
3,QVQLVESGGGLVQAGGSLRLSCAASGRIFRRYAMGWYRQAPGKERELVAAITSGSSTNYADSVKGRFTISRDNAKNTVYLQMNSLKPEDTAVYYCNAKLRGYYYSRYNYWGQGTQVTVSS,high polyreactivity
4,QVQLVESGGGLVQAGGSLRLSCAASGPTFGGYTMGWYRQAPGKERELVAAITWSGGRTYYADSVKGRFTISRDNAKNTVYLQMNSLKPEDTAVYFCATSRSRERPLHNGPYYYWGLGTQVTVSS,high polyreactivity
5,QVQLVESGGGLVQAGGSLRLSCAASGSTFAAYAMGWYRPAPGTERELVAAISASGGSTYYADSVKGRFTISRDNEKNTVYLQMNSLKPEDTAVYYCAARVFRGLGEYYWGQGTQVTVSS,high polyreactivity
6,QVQLVESGGGLVQAGGSLRLRCAASGSILYSYTMGWYRQAPGKERELVAALIRGGRTNYADSVKGRFTISRDNAKNTVYLQMNSLKPEDTAVYYCNTGSYAWSWRRAMDYWGQGTQVTVSS,high polyreactivity
7,QVQLVESGGGLVQAGGSLRLSCAASGSIFHRYAMGWYRQAPGKERELVAAINRGGSSYADSVKGRFTISLDNAKNTVYLQMNRLNPEDTAVYYCATRNIGRSTGPFYWGYYYWGQGTQVTVSS,high polyreactivity
8,QVKLVESGGGLDQAGGSLRLSCAASGRTFGSYTMGWYRQAPGKERELVAAITSGGRTNYADSVKGRFTISRDNAKNTVYLQMNSLKPEDTAVYYCAAGWRGGRYRYFAYDYWGQGTQVTVSS,high polyreactivity
9,QVQLVESGGGLVQAGGSLRLSCAASGRTFFDYAMGWYRQAPGKERELVAAINWSGGRTYYADSVKGRFTISRDNAKNTVYLQMNTLKPEDTAVYYCAKPFSSNSWSHGYWGQGTQVTVSS,low polyreactivity
10,QVQLVESGGGLVQAGGSLRLSCAASGRIFYYYAMGWYRQAPRKERELVASINSGGSTYYADSVKGRFTISRDNAKNTVYLQMNSMKPEDTAVYYCAAGFQLVKGYLSGRAAYYYWGQGTQVTVSS,high polyreactivity
11,QVQLVESGGGLVQAGGSLRLSCAASGRTFRYYAMGWYRQAPGKERELVAAISSSGDRTYYADSVKGRFTISRDNAKKTVYLQMNSLKPEDTAVYYCAADRGARGDYWGQGTQVTVSS,high polyreactivity
12,QVQLVESGGGLVQAGGSLRLSCAASGSTFSYNAMGCYRQAPGKESELVAAISRGDVSTYYADSVKGRFTISRDNAKNTVYLQMNSLKPEDTAVYYCAAYWYGSQYKWRYDYWGQGTQVTVSS,low polyreactivity
13,QVQLVESGGGLVQAGGSLRLTCAASGSTFGYYAMGWNRQATGKERELVASITSDGSTNYADSVKGRFTISRDNAKNTVYLQMNSLKPEDTAVYYCAAYVWRYWHEYDYWGQGTQVTVSS,low polyreactivity
14,QVQLEESGGGLVQAGGSLRLSCAASGSIFKRKAMGWSRQAPGKERELVASISSGGSTHYADSVKGRFTISRDNAKNTVYLQMNSLKREDTAVYYCAATSIRWSVGSFRRDYWGQGTQVTVSS,low polyreactivity
15,QVQLVESGGGLVQAGGSLRLSCAASGRTFSGYAMGWYRQAPGKERELVAAIRWSGGSTYYADSVKGRFTISRDNAKNTVYLQMNSLKPEDTAVYYCATRDYYYRYGYWGQGTQVTVSS,high polyreactivity
16,QVQLVESGGGLVQAGGSLRLSCAASGRTFHRYTMGWYRPAPGKERELVAAISRNGGSTYYADSVKGRFTISRDNAKNTVYLQMNSLKPEDTAVYYCNKPYWSDDYYSWGQGTQVTVSS,high polyreactivity
17,QVQLVESGGGLVQAGGSLRLSCAASGSTFTTNAMGWYRQAPGKERELVASITWSGGGTNYADSVKGRFTISRDNAKNSVFLQMNSLKPEDTAVYSCADDYDDSHLRSDYWGQGTQVTVSS,low polyreactivity
18,QVQLVESGGGLVQAGGSLRLSCAASGSTFKKYAMGWYRQAPGKERELVAAITWTGGSTYYADSVKGRFTISRDNAKNTVYLQMNSLKPEDTAVYYCAAYKTYAVKYYWGQGTQVTVSS,high polyreactivity
19,QVQLVESGGGLVQAGGSLRLSCAASGRIFSDYAMGWYRQAPGKERELVATISASGGSTYYADSVKGRFTVSRDNAKNSVYLQMNSLKPEDTAVYYCAGDYEGYNFDYWGQGTQVTVSS,low polyreactivity
20,QVQLVESGGGLVQAGGSLRLSCAASGLTFVKNVMGWYRQAPGKERELVAAISRRGGSTYYADSVKGRFTISRDNAKNTVYLQMNSLKPEDTAVYSCNAVLNHLSYIYPAVGYWGQGTQVTVSS,high polyreactivity
21,QVQLVESGGGLVQAGGSLRLSCAASGRIFWVNVMGWYRQGPGKERELVAAITRGASTYADSVKGRFTISRDNAKNTVYLQLNSLKPEDTAVYYCAADSKRRSIRYDYWGQGTQVTVSS,high polyreactivity
